# Results taken from patent publication CN114671953A (BORGI BIOMEDICAL SCIENCE AND TECH HANGZHOU LIMITED COMPANY, dated 2022).
# T1: 人Nectin-4 (human, UniProt Q96NY8 32-349)
# T1 construct: construct not described; also called human Nectin-4; PVRL4
# T1 sequence (looked up): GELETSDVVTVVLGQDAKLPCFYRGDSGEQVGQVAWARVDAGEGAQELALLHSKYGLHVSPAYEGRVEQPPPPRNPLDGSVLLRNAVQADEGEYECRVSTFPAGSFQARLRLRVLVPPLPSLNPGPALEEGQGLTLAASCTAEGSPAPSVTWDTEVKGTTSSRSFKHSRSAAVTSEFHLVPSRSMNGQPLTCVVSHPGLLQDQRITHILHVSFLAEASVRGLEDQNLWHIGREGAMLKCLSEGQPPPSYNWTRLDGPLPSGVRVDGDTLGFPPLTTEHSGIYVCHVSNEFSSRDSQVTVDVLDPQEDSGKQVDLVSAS
# Biological target: T1, 人Nectin-4
# Experiment: BLI, VHH-Fc on anti-hIgG Fc probe, human Nectin-4 as analyte
# Parameters: 响应: unit not given here
Kd [nM],响应,Binder
0.958,0.891,"CMB7-10 (Fc fusion, Tested as VHH fused to human Fc; also called VHH-Fc; not shown: human Fc fused to the VHH) QVQLVESGGGLVQAGESLRLSCAASGSIFSINAMAWYRQAPGKQRELVAAITSGGSTKYADSVKGRFTISRDNAKNTVYLQMNSLKPEDTAVYYCAAMDRTTLEYDYWGQGTLVTVSS"
–,0.867,"CMB7-19 (Fc fusion, Tested as VHH fused to human Fc; also called VHH-Fc; not shown: human Fc fused to the VHH) QVQLVESGGGLVQAGGSLGLSCAASESIFSYNAMGWFRQAPGKQRELVAAITSGGSIKYADSVKGRFTISRDNAKNTVYLQMNSLKPEDRGVYYCAAMDRTTLEYDYWGQGTLVTVSS"
–,0.97,"CMB7-12 (Fc fusion, Tested as VHH fused to human Fc; also called VHH-Fc; not shown: human Fc fused to the VHH) QVQLVESGGGLVQPGGSLRLACAASGSIFSINVMGWYRQAPGKQREYVASVSRGGSVKYVDSVKGRFTVSRDNAKNTMYLEMNSLKPEDTAIYFCGAETKMGRGFDSWGQGTQVTVSS"
0.53,0.891,"CMB7-9 (Fc fusion, Tested as VHH fused to human Fc; also called VHH-Fc; not shown: human Fc fused to the VHH) QVQLVESGGGLVQPGGSLRLSCAASGSIFSINAMGWYRQAPGKQRELVASITNGGSTKYDDSVKGRFTISRDNAKNTVYLQMNSLKPEDTAVYYCAAASLVVGGTWEYDTWGQGTLVTVSS"
–,0.94,"CMB7-11 (Fc fusion, Tested as VHH fused to human Fc; also called VHH-Fc; not shown: human Fc fused to the VHH) QVQLVESGGGLVQAGGSLRLSCAASGSIFSISAMGWFRQAPGNQREMVAAITKGGSVNYADSVKGRFTITRDNAKNTVYLQMNSLKPEDTAVYYCAAAVGAPFEYDYWGQGTQVTVSS"
–,0.835,"CMB7-6 (Fc fusion, also called VHH 36; VHH-Fc; not shown: human Fc fused to the VHH) QVQLVESGGGLVQPGGSLRLSCAASGSIFSINVMGWYRQAPGKQRELVATITSGGSVNYADSVKGRFTISRDNANNTVYLQMNTLKPEDTAVYYCTADQLGPLGLLSPTIYWGQGTLVTVSS"
–,0.783,"CMB7-20 (Fc fusion, Tested as VHH fused to human Fc; also called VHH-Fc; not shown: human Fc fused to the VHH) QVQLVESGGGLVQPGGSLRLSCAASGSIFSMNVMGWYRQAPGKQRELVATITSGGSTNYADSVKGRFTISRDNANNTVYLQMNSLKPEDTAVYYCTGDQLGPLGTFSPIVYWGQGTQVTVSS"
–,0.877,"CMB7-23 (Fc fusion, Tested as VHH fused to human Fc; also called VHH-Fc; not shown: human Fc fused to the VHH) QVQLVESGGGLVQPGGSLRLSCAASGSDFTINVMGWYRQAPGKQRELVATVTSGGSLNYADSVKGRFTISRDNAKNTVYLQMNSLKPEDTAVYYCTADQFGPLGHLSPIIYWGQGTQVTVSS"
–,0.841,"CMB7-22 (Fc fusion, Tested as VHH fused to human Fc; also called VHH-Fc; not shown: human Fc fused to the VHH) QVQLVESGGGLVQAGGSLRLSCAASGSIFSINAMGWFRQAPGKQRELVAAITSGGSTNYAVSVKGRFTISSDKAKNTVYLQMNSLKPEDTAVYYCAAARGEPFEYEYWGQGTLVTVSS"
–,0.972,"CMB7-7 (Fc fusion, Tested as VHH fused to human Fc; also called VHH-Fc; not shown: human Fc fused to the VHH) QVQLVESGGGLVQAGGSLRLSCAASGSIFSINAMGWFRQAPGKQRELAAAITSGGSTKYADSVKGRFTISRDNAKNTVYLQMNRLKPEDTGVYYCAAATGEPFEYNYWGQGTQVTVSS"
–,0.915,"CMB7-8 (Fc fusion, Tested as VHH fused to human Fc; also called VHH-Fc; not shown: human Fc fused to the VHH) QVQLVESGGGLVQAGGSLRLSCAASGNIFSVNAMGWFRQAPGKQRELVAAITSGGSIRYVDSVKGRFTISRDNAKNTVYLQMNSLKPEDTAVYYCAAARGEPYEYDYWGQGTLVTVSS"
0.81,0.729,"CMB7-18 (Fc fusion, Tested as VHH fused to human Fc; also called VHH-Fc; not shown: human Fc fused to the VHH) QVQLVESGGGLVQAGGSLRLSCAASGSIFSINAMGWHRQGPGDQRELVAAITSGGSTKYVDSVKGRFTISRDNAKNTVYLQMNSLKPEDTGVYYCAAMGGSYEYDYWGQGTQVTVSS"
